Measurements published in article PMC5879678 (Proceedings of the National Academy of Sciences of the …, 2018).

Key:
[1] = target: the molecule itself; experiment: Thioflavin T fluorescence
[2] = target: the molecule itself; experiment: AUC

Row | Protein | binding result [1] | stoichiometry N [2]
1 | TasA239 (TasA core domain, amino acids 28-239) (domain or fragment, Bacillus subtilis, UniProt P54507 28-239, looked up, 2H,15N,13C isotope labelling in the NMR samples) AFNDIKSKDATFASGTLDLSAKENSASVNLSNLKPGDKLTKDFQFENNGSLAIKEVLMALNYGDFKANGGSNTSPEDFLSQFEVTLLTVGKEGGNGYPKNIILDDANLKDLYLMSAKNDAAAAEKIKKQIDPKFLNASGKVNVATIDGKTAPEYDGVPKTPTDFDQVQMEIQFKDDKTKDEKGLMVQNKYQGNSIKLQFSFEATQWNGLTIK | binds | –
2 | TasA261 (mature secreted TasA, amino acids 28-261) (natural protein, Bacillus subtilis, UniProt P54507 28-261, looked up, 2H,13C,15N isotope labelling in the NMR samples) AFNDIKSKDATFASGTLDLSAKENSASVNLSNLKPGDKLTKDFQFENNGSLAIKEVLMALNYGDFKANGGSNTSPEDFLSQFEVTLLTVGKEGGNGYPKNIILDDANLKDLYLMSAKNDAAAAEKIKKQIDPKFLNASGKVNVATIDGKTAPEYDGVPKTPTDFDQVQMEIQFKDDKTKDEKGLMVQNKYQGNSIKLQFSFEATQWNGLTIKKDHTDKDGYVKENEKAHSEDKN | – | 12
